Measurements: patent US20040214773

How the values were obtained:
human cathepsin B = human cathepsin B (UniProt P07858)
human cathepsin G = biological target: T1, human cathepsin G (UniProt P08311)
T1 sequence: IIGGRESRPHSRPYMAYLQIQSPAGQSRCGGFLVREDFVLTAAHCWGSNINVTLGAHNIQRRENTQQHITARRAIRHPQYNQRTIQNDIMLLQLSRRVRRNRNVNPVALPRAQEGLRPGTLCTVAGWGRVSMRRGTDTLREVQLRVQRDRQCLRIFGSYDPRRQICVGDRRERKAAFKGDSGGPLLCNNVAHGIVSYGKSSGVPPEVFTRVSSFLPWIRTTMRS

human cathepsin H = biological target: T2, human cathepsin H (UniProt P09668)
T2 sequence: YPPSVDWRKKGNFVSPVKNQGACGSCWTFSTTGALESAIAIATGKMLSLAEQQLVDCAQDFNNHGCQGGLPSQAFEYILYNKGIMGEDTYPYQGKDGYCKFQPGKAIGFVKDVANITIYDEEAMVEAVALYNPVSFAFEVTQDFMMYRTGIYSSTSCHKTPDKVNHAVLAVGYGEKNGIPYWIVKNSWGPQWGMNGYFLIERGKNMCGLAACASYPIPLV

human cathepsin K = biological target: T3, human cathepsin K (UniProt P43235)
T3 sequence: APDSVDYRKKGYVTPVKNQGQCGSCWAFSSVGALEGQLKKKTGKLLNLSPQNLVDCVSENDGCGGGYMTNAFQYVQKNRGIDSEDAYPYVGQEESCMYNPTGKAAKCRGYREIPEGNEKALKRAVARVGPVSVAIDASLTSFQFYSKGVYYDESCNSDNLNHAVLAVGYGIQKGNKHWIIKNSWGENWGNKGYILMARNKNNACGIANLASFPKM

human cathepsin L = human cathepsin L (UniProt P07711)
human cathepsin V = human cathepsin V (UniProt O60911)
human elastase = human elastase (UniProt P08246)
human granzyme A = biological target: T4, human granzyme A (UniProt P12544)
T4 sequence: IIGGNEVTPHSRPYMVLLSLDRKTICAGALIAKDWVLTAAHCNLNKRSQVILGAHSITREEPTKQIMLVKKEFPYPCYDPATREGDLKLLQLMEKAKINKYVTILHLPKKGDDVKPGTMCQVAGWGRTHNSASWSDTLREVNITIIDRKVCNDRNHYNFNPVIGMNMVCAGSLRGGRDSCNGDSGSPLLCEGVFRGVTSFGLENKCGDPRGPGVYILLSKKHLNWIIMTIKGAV

human granzyme B = human granzyme B (UniProt P10144)
[1] = tested on: Spi2A-3xFLAG (murine serine protease inhibitor 2A with a C-terminal 3xFLAG epitope tag)

Sequence of human granzyme B (P10144 21-247): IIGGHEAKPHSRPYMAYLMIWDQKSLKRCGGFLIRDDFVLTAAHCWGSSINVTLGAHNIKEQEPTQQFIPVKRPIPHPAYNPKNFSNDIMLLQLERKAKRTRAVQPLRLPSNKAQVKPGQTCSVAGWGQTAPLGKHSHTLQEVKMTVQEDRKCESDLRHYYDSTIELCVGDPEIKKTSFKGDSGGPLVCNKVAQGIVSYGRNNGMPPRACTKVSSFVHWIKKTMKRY
Sequence of human cathepsin V (O60911 114-334): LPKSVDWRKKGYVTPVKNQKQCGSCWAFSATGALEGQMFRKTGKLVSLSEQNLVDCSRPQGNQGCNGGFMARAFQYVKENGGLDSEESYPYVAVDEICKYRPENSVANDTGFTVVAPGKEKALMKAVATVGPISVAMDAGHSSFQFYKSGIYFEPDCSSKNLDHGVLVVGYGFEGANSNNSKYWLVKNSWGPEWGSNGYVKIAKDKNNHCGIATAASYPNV
Sequence of human cathepsin L (P07711 114-333): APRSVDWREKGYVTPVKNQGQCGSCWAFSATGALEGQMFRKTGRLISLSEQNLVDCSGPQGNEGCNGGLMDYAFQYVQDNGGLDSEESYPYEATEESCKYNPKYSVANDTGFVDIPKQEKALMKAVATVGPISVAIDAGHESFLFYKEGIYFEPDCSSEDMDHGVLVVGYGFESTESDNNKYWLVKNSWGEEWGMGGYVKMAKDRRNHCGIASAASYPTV
Sequence of human elastase (P08246 30-247): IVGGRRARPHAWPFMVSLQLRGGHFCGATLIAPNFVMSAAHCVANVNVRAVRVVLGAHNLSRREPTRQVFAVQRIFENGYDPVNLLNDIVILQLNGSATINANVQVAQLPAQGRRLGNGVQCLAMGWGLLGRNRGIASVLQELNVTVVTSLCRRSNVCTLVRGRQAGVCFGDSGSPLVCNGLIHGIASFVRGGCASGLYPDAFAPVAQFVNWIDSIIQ

Substance	protease activity after incubation under the same conditions as with Spi2A (human cathepsin B)	protease activity after incubation under the same conditions as with Spi2A (human cathepsin G)	protease activity after incubation under the same conditions as with Spi2A (human cathepsin H)	protease activity after incubation under the same conditions as with Spi2A (human cathepsin K)	protease activity after incubation under the same conditions as with Spi2A (human cathepsin L)	protease activity after incubation under the same conditions as with Spi2A (human cathepsin V)	protease activity after incubation under the same conditions as with Spi2A (human elastase)	protease activity after incubation under the same conditions as with Spi2A (human granzyme A)	protease activity after incubation under the same conditions as with Spi2A (human granzyme B)	continuous hydrolysis of the cathepsin B substrate (Z-FR)2-R110, 20 nM cathepsin B with 200 or 400 nM Spi2A [1]
alkaline phosphatase tagged with C-terminal 3xFLAG (Sigma-Aldrich)	had no effect on protease activity	had no effect on protease activity	had no effect on protease activity	had no effect on protease activity	had no effect on protease activity	had no effect on protease activity	had no effect on protease activity	had no effect on protease activity	had no effect on protease activity	
human cathepsin B										The enzyme was completely inhibited, within the dead time of the measurement
